Measurements published in US20210252159A1, “CONJUGATES OF CARTILAGE-HOMING PEPTIDES” (priority 2018, published 2021).
No end group written: not given here.

Tests used:
[1] = Comparison of joint retention time among radiolabeled peptides (QWBA, knee and IVD); assay type: in vivo; set-up: Peptide Signal Retention in Knee / Peptide Signal Retention in IVD: unit not given here; conditions: for joint retention: SEQ ID NO: 105 57-60 nmol, SEQ ID NO: 103 130 nmol, SEQ ID NO: 184 150 nmol
Experimental: Frozen carcasses were allowed to off gas hexane overnight at −20° and then embedded in chilled 2% carboxymethylcellulose (Sigma Aldrich) and sectioned sagittally at a thickness of 40 μm on an H/I Bright 8250 Cryostat (Hacker Instruments). Radioactive control guides were drilled into each block to verify even cutting depth along the length of the section. The radioactive guide consisted of ^14C-Glycine (American Radiolabeled Chemicals, “ARC”) at 0.5 uCi/ml in 0.5% BSA (Sigma Aldrich) in PBS. Sections were collected onto 4-inch wide tape (Scotch 821, ULINE) at 2-4 depths to sample approximately 30 tissues with particular focus on the knees and spine. Collected sections were freeze dried in the cryostat for 48-72 hours then mounted on sturdy paper and covered with a single protective layer of cellophane (Reynolds Food Service Film). Mounted sections were exposed to phosphor imager plates (Raytest) along with a radioactive standard Curve (1465-PL, ARC) for 7-days, scanned on a Raytest CR-35 at “25 μm sensitive” setting.
Quantification of the radioactivity detected in WBA samples was evaluated by measuring the pixel density/mm^2 (“SI”: Signal Intensity/Area−background) using AIDA Image Analyzer v 5.1 Whole Body Autoradiography Professional software (Raytest). Regions of interest (ROIs) were drawn manually around the entire visible tissue, comparing the sectioned sample to the autoradiogram. For quantification, all visible knee or IVD (intervertebral disc) tissues for one rodent across all collected sections were measured and averaged together to generate one knee or IVD value per animal. Typically were sampled 1-2 knee values (from femoral and tibial cartilage) per 1-2 sections per animal and 3-10 IVD per 1-2 sections per animal. To collect quantified values for other tissues, ROIs were drawn around blood in the heart ventricle, spinotrapezius muscle, the liver, or the kidney (including cortex and medulla) in all sections in which the tissue was observed and then averaged to yield one value per tissue per animal.
Data were presented as nmol of compound per gram of tissue. The commercial standard strips co-exposed with each WBA sample set were calibrated so that a known amount of radioactive counts per minute (CPM) per gram of tissue, determined by liquid scintillation counting (LSC), corresponded to the measured WBA SI at 11 standard strip concentration data points. The regression line of the log 10 transformed WBA signal intensity plotted against the log 10 transformed CPM/g gave a linear range of 1×10^5 to 7.5×10^7 WBA SI, corresponding to 6.3 nCi/g to 3.3 μCi/g. The log 10 concentration of radioactivity in each tissue (CPM/g) was interpolated from the standard curve, converted to linear values, and translated from CPM/g to uCi/g by interpolation against an LSC CPM to μCi standard curve. Uptake (nmol of compound/g of tissue) was determined by dividing the μCi/g tissue by the μCi/nmol specific activity of the peptide.
Peptide(SEQ ID NO: 105) was dosed at 57-60 nmol. Peptide(SEQ ID NO: 103) was dosed at 130 nmol. Peptide(SEQ ID NO: 184) was dosed at 150 nmol. […] It should be noted that detection of retention is based on an assay that detects radiolabeling of the N-terminus of each of the tested conjugates, thus decrease in signal over time may be due not only to peptide diffusion back out of the cartilage but also aminopeptidase-mediated removal of N-terminal amino acid, general peptide cleavage, or other mechanisms. Results as measured by QWBA methods described herein are shown in Tables 6 and 7 below and FIG. 11.

[2] = Biodistribution and pharmacokinetics of ^14C-labeled peptides in knee and IVD (QWBA); assay type: in vivo, athymic nude mice; conditions: for levels in knee and IVD compared with peptide(SEQ ID NO: 105): After 24 hours
Experimental: Synthetic peptides were radiolabeled by reductive methylation of the N-terminus with ^14C formaldehyde. 2 mice per time point were injected IV with 12.4 μCi of peptide (approximately 100 nmol or 18 mg/kg) and then euthanized at 0.08, 0.5, 1, 3, 8, 24, 48, 72, or 96 hours, followed by quantitative whole body autoradiography analysis.
To that end, the biodistribution pharmacokinetics of ^14C-labeled peptides ^14C-peptide(SEQ ID NO: 105), ^14C-peptide(SEQ ID NO: 103), and ^14C-peptide(SEQ ID NO: 184) to the knee (FIG. 19A and FIG. 19B) and intraverterbral discs (IVD, FIG. 19C and FIG. 19D) was assessed in mice (FIG. 19). Tissue levels were quantified by whole body autoradiography of peptides that had been radiolabeled by reductive methylation of the N-terminus. ^14C-peptide(SEQ ID NO: 105) and ^14C-peptide(SEQ ID NO: 103) both peaked in knee and IVD around 1-3 hours whereas ^14C-peptide(SEQ ID NO: 184) peaked later at 8 hours. […] All peptides still had observable signal at the last time point of 96 hours. […] As the peptide levels are based on the radiolabel attached to the N-terminus of the peptide, the decrease in signal with time may be due to aminopeptidase activity on the N-terminus of the peptides (which would not be relevant on PDC conjugates, where the drug linker is attached to the N-terminus), due to peptide diffusion back out of the cartilage, or due to general peptide backbone cleavage. For example, higher sustained levels of peptide in the cartilage may be desirable if drug cleavage has a slower pharmacokinetics, and if the peptide-drug conjugate is not saturating peptide binding sites in the cartilage when using repeat dosing. As another example, an earlier tmax in cartilage may be desirable to minimize premature cleavage of a conjugated drug in serum.

Sequence | Peptide Signal Retention in IVD ([1]; 0.08 Hours) | Peptide Signal Retention in Knee ([1]; 0.08 Hours) | Peptide Signal Retention in IVD ([1]; 0.5 Hours) | Peptide Signal Retention in Knee ([1]; 0.5 Hours) | Peptide Signal Retention in IVD ([1]; 1 Hours) | Peptide Signal Retention in Knee ([1]; 1 Hours) | Peptide Signal Retention in IVD ([1]; 3 Hours) | Peptide Signal Retention in Knee ([1]; 3 Hours) | Peptide Signal Retention in IVD ([1]; 8 Hours) | Peptide Signal Retention in Knee ([1]; 8 Hours) | Peptide Signal Retention in IVD ([1]; 24 Hours) | Peptide Signal Retention in Knee ([1]; 24 Hours) | Peptide Signal Retention in IVD ([1]; 48 Hours) | Peptide Signal Retention in Knee ([1]; 48 Hours) | joint retention [1] | levels in knee and IVD compared with peptide(SEQ ID NO: 105) [2] | also measured
GSSERDCIRHLQRCRENRDCCSRRCSRRGTNPERRCR (not fully specified (N-terminus, bridges); cysteine pairing not given here) [peptide(SEQ ID NO: 103), cartilage-homing cystine-dense peptide; biodistribution with form ^14C-methylated on the N-terminus] | 59.15 | 79.20 | 76.62 | 110.57 | 100.00 | 100.00 | 113.18 | 103.00 | 107.52 | 98.94 | 50.75 | 44.60 | 34.86 | 29.30 | Longer joint retention | substantially higher levels | –
GSGDCLPHLRRCRENNDCCSRRCRRRGANPERRCR (not fully specified (N-terminus, bridges); cysteine pairing not given here) [peptide(SEQ ID NO: 184), cartilage-homing cystine-dense peptide; biodistribution with form ^14C-methylated on the N-terminus] | 53.02 | 96.94 | 49.70 | 69.85 | 100.00 | 100.00 | 238.11 | 158.43 | 119.97 | 111.32 | 64.00 | 57.81 | 49.99 | 50.44 | Longer joint retention | substantially higher levels | Peptide Signal Retention in IVD ([1]; 72 Hours): 52.20; Peptide Signal Retention in Knee ([1]; 72 Hours): 28.30; Peptide Signal Retention in IVD ([1]; 96 Hours): 36.54; Peptide Signal Retention in Knee ([1]; 96 Hours): 11.84; time of peak in knee and IVD ([2]; mice, approximately 100 nmol IV, QWBA): 8 h
